# Numbering of substitutions follows the chain as printed. Numbers in names are those of the source.
# B1: Strep-RibH (enzyme, Bacillus subtilis, UniProt P11998 1-154, looked up)
# chain: MNIIQGNLVGTGLKIGIVVGRFNDFITSKLLSGAEDALLRHGVDTNDIDVAWVPGAFEIPFAAKKMAETKKYDAIITLGTVIRGATTHYDYVCNEAAKGIAQAANTTGVPVIFGIVTTENIEQAIERAGTKAGNKGVDCAVSAIEMANLNRSFE
# notes: RibH, lumazine synthase of Bacillus subtilis; printed mass of Strep-RibH 17.9 kDa; Cloning and purification are described in the Supplementary Data; The printed mass fits the whole protein with its tag (surmised); also called wt-like Strep-RibH; source: E. coli BL21 (DE3) Star, purified (Strep-Tactin, SEC); also coproduced with His6-RibE; not shown: Strep tag, N-terminal, kept; copies: 60
# B2: Strep-RibH^K29R (enzyme, Bacillus subtilis, UniProt P11998 1-154, looked up)
# chain: B1 chain with K29R
# notes: RibH, lumazine synthase of Bacillus subtilis, with K29R; printed mass 17.9 kDa; Cloning and purification are described in the Supplementary Data; the tag is likely N-terminal as in Strep-RibH (surmised); source: E. coli BL21 (DE3) Star, purified (Strep-Tactin, SEC); also coproduced with His6-RibE; copies: 60
# B3: Strep-RibH^K29E (enzyme, Bacillus subtilis, UniProt P11998 1-154, looked up)
# chain: B1 chain with K29E
# notes: RibH, lumazine synthase of Bacillus subtilis, with K29E; printed mass 17.9 kDa; Cloning and purification are described in the Supplementary Data; source: E. coli BL21 (DE3) Star, purified (Strep-Tactin, SEC); also coproduced with His6-RibE; not shown: Strep tag, N-terminal, kept; copies: 60
# Target: the molecule itself
# Experiment: pull-down + SEC; coproduced in E. coli BL21 Star, purified by Strep-Tactin affinity chromatography followed by SEC; pooled 60-mer peak (~1 MDa) analysed by SDS-PAGE
row,Protein,stoichiometry N
1,B1,60
2,B2,60
3,B3,60
